± gives the uncertainty stated by the source.
Test: amyloid nucleation score (Sup35N fusion, yeast selection) (log enrichment); library NNK1; higher = more nucleation; inactive = no reads after selection
Procedure, shortened: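 Growth for 7 days at 30°C on medium lacking adenine and uracil followed a 24-hour induction with 100 μM copper sulfate of psi-negative yeast expressing peptides of 20 random codons fused to Sup35N. Input and output plasmid inserts were sequenced with Illumina, and sequences with under 100 input reads were excluded. Nucleation score is the DiMSum log enrichment of output over input reads, centred on the mode score of non-aggregating sequences.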

In order of rising amyloid nucleation score:
1. LRSGKAQYTEVVLLRIRPGF  -1.4 ± 2.7
2. LPLHAESTGCYGLFSEHFSI  -1.27 ± 1.2
3. FGFSKWSSMLIRHQPYDLFI  -1.1 ± 1
4. MAGPYLVERRSMWASNARAE  -1.07 ± 1.4
5. VSNVRNSCLHLSARLYSTDL  -0.702 ± 0.91
6. LYAIYTAFNRVSSYSNMPVM  -0.599 ± 0.92
7. CTGIWSLLSCTTFRHIATVV  -0.469 ± 1.7
8. SNFCDSDLYLFRNWPYYWHS  -0.434 ± 0.26
9. PGEVRW  -0.385 ± 1.9
10. MLTWCPTSEKVVLLFRSQRG  -0.383 ± 1.7
11. HIWLVVKKFPNIEHSIMIGS  -0.334 ± 1.2
12. YWLSSVHSQSRVAK  -0.298 ± 1.7
13. WASTLEDVMRQEKVHLWMIG  -0.242 ± 0.3
14. ETFNWLSCIVRRSQKYAEET  -0.242 ± 1.2
15. SVCGH  -0.237 ± 0.37
16. FEFIVMEIAC  -0.189 ± 0.35
17. TKGYLWPRKQTAFVWIAMCG  -0.187 ± 0.27
18. FEQCPIFRRGRLLRSNAVCA  -0.145 ± 0.33
19. FTVSLTSLYYISITGLLARR  -0.115 ± 0.52
20. WCWLCVKRR  -0.108 ± 0.56
21. TMGVTIYGCWCDLNTSLVFG  -0.104 ± 0.24
22. SIEDHDYFLIAFY  -0.076 ± 1.6
23. FRSVVWRLHTFY  -0.075 ± 0.5
24. STVNGICSRKLAIRELFSNH  -0.063 ± 0.26
25. DSCEW  -0.062 ± 0.58
26. VMTVMVFMRYRGRFVYG  -0.041 ± 0.98
27. GCMAPNCCGWEGVDEMSWVR  -0.013 ± 0.84
28. RICGGTSFDSRNGLKLGRKG  0.034 ± 0.64
29. NVSSLQDFRVMFWIFECTTR  0.052 ± 0.44
30. SFIMSNS  0.075 ± 0.41
31. SVWVENLEFIWRYLPSSVYP  0.076 ± 0.3
32. TLSIFVLRIGARYNMLSLIQ  0.095 ± 0.59
33. IMYCLFGHLFLLRIGGFIMG  0.101 ± 0.68
34. YGDGMGPWCYCWAFAEPRRS  0.114 ± 1.1
35. LCKRNVKCQFL  0.192 ± 0.59
36. FDCVMLISHHCVILCCFSDM  0.205 ± 1.1
37. LVSMRMAFCPWLVRKGIPL  0.206 ± 1.6
38. ASYMYAPSIFYSERLKWNPS  0.226 ± 0.78
39. WVTSSAFEE  0.277 ± 0.7
40. YQVPKKVAATIGTAWARKRA  0.279 ± 0.29
41. SSSGMVDSVSYDLRGRVGLR  0.29 ± 0.3
42. HLLNYIVGL  0.294 ± 0.69
43. EFLMIQIVMGAPGCHKGTRR  0.322 ± 0.47
44. PALNILNHYLLCKDPLFVRV  0.348 ± 0.37
45. VFNLMI  0.381 ± 0.28
46. GGLKMTP  0.393 ± 0.25
47. FDKGVSIRPSAWRDPRVWPS  0.417 ± 0.47
48. WRICLQCRAYPLRTTGGQRQ  0.444 ± 0.69
49. PNLPGSKDNLTDRF  0.488 ± 1.2
50. FRYYRF  0.522 ± 0.45
51. KTTCIDTIR  0.565 ± 0.43
52. TPFGSVMVGYWQPIPLRDLG  0.634 ± 0.54
53. NLAGI  0.716 ± 0.88
54. TSNLHTHGSVFDFWG  0.732 ± 0.55
55. GGFFRHGEIDMYRCSSEWFL  0.77 ± 0.97
56. CWASIEVLRRSDYGGFCHSV  0.826 ± 0.6
57. FLGPIAIVGRHLMICIMQSH  0.855 ± 0.43
58. FSVWGLRLTRARMQTERVLL  0.86 ± 0.59
59. MHRGALSTMQHLHEISLLSC  0.886 ± 0.52
60. CRSSVFKYVPVSNIFDYFSI  0.921 ± 0.84
61. NGFPTNELLFPALKVCNSRV  0.945 ± 1.1
62. RLGRNVNEHRVPLVLACVED  0.964 ± 0.93
63. DVFGLLSIYYR  1.1 ± 0.57
64. EDSLPLDMEVNLGRIVEPKM  1.14 ± 0.59
65. FSCSTCNVCNERHPEVFTYD  1.15 ± 0.51
66. LCVNERVHQSLSRQRIPNCL  1.26 ± 0.61
67. RMPRCKVFSVFSLLHAQY  1.35 ± 0.9
68. SSSIVLCAVRCSRPSWFGML  1.45 ± 0.32
69. SHNVKSWCRYSDGQKGLCKY  1.62 ± 0.43
70. HYSGIVWCSVREL  1.72 ± 0.52
71. VPNFDQSNGQCIGDTVLMWC  1.74 ± 0.49
72. TCVSYTP  1.75 ± 0.56
73. NILKNTLAFSVYLISLPLHV  1.82 ± 0.1
74. RRFPRMWGLCMSLFRSHCGS  1.92 ± 0.27
75. VYIHTWIRVKIWSSS  1.96 ± 0.65
76. VCAEWGAVAPGIGKEYQQRM  2.04 ± 0.32
77. RYISYAKCRNYNGLIMYYLY  2.52 ± 0.11
78. FFCEIVMYGWSIM  2.97 ± 0.14
79. LPFNVL  3.09 ± 0.2
80. ISNCYQVKALFVSHFLIRDR  4.29 ± 0.047
81. RPTYMCSGTGDFLHFVFR  4.64 ± 0.053
82. LHLECLWCLARTSYF  8.244 ± 0.045

With TQPMSF the amyloid nucleation score was “inactive”.
In the case of LIVLWNCSADPDGFMWCSKC, the amyloid nucleation score is reported as “inactive”.
In the case of HVTVNGWGAVSFLKNAKVVR, the amyloid nucleation score is reported as “inactive”.
For SANDFKMWGMVDKFGVMVLL, the amyloid nucleation score was “inactive”.

Source: the supplement of paper PMC12042874
